Experiment [1] deals with T1, PSMA Fab (006 PSMA Fab) (biotinylated (site not stated)).
T1 construct: That the same Fab was used in the panning ELISA is inferred; also called Anti-PSMA Fab; anti-PSMA Fab
Put plainly: clonal phage ELISA on captured anti-PSMA Fab pre-incubated with PSMA antigen (competitor: PSMA).

Experiment [2] has as its target T1, PSMA Fab (006 PSMA Fab). Put plainly: clonal phage ELISA on biotinylated anti-PSMA Fab captured on neutravidin, anti-M13-HRP detection.
Description: (§1) Clonal phage were harvested as crude supernatants and screened via standard ELISAs. […] Prior to the addition of clonal phage. wells were incubated with blocking buffer and PSMA antigen or blocking buffer alone. Without washing or aspirating, clonal phage supernatants were then added to the wells and incubated for a short time. Wells were then washed followed by detection of bound phage using a horse radish conjugated anti-M13 antibody.
For experiment [3], the target named is T2, PSMA Fab.
T2 construct: also called Anti-PSMA Fab; 006 PSMA Fab
Description: clonal phage ELISA; biotinylated PSMA Fab on neutravidin plate, blocking buffer alone; anti-M13 HRP detection. (In general: ELISA stands for enzyme-linked immunosorbent assay.)
Description: as §1

Experiment [4] addresses T2, PSMA Fab. Put plainly: clonal phage ELISA; biotinylated PSMA Fab on neutravidin plate, pre-incubated with PSMA antigen as competitor; anti-M13 HRP detection.
Description: as §1
Experiment [5] concerns the target T3, PSMA Fab (006 PSMA Fab) (Fab biotinylated for capture on neutravidin plates (site not given)).
T3 construct: also called Anti-PSMA Fab; anti-PSMA Fab
Put plainly: clonal phage ELISA; biotinylated PSMA Fab on neutravidin plate, wells pre-incubated with PSMA antigen as competitor; anti-M13-HRP detection.

The target of experiment [6] is T3, PSMA Fab (006 PSMA Fab). Description: clonal phage ELISA; biotinylated PSMA Fab on neutravidin plate, blocking buffer alone; anti-M13-HRP detection.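 Note: clonal phage applied as crude supernatants to wells preincubated with blocking buffer, binding read by ELISA.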
Description: as §1

Where no end group is shown, it is not given here.

B1: Phage-3431 (peptide)
peptide: EDILCKPVWMCIGF
notes: Peptide-180 library clone, tested as clonal phage supernatant; not shown: fused to the pIII filament protein of the bacteriophage
For the molecule B1, the “phage binding ELISA signal in the presence of PSMA” value with PSMA Fab (006 PSMA Fab) [1] stood at 0.06. For the same molecule, the “phage binding ELISA signal” value with PSMA Fab (006 PSMA Fab) [2] is 1.77.
Regarding MLPYCVPQWMCMGF [Phage-3419], in the experiment with PSMA Fab [3], the “Phage binding ELISA signal, Anti-PSMA Fab” value turned out to be 1.78. For the same molecule, the “Phage binding ELISA signal, Anti-PSMA Fab with PSMA antigen” value with PSMA Fab [4] was determined as 0.147.

B2: Phage-3457 (peptide)
peptide: VEKMCRPLWMCHGF
notes: also called Peptide-180 library clone; not shown: pIII filament protein of the bacteriophage
B2: the “Phage binding ELISA signal, Anti-PSMA Fab in presence of PSMA antigen” value (“Phage binding ELISA signal … of PSMA antigen” below) with PSMA Fab (006 PSMA Fab) [5] was 0.0944. The “Phage binding ELISA signal, Anti-PSMA Fab” value in the experiment with PSMA Fab (006 PSMA Fab) [6] was 1.74.

B3: Phage-3426 (peptide)
peptide: MTPRCIPSWMCFGM
notes: as for B1
As to B3, in the experiment with PSMA Fab (006 PSMA Fab) [1], the “phage binding ELISA signal in the presence of PSMA” value was determined as 0.086. The “phage binding ELISA signal” value in the experiment with PSMA Fab (006 PSMA Fab) [2] came out at 1.77.

B4: Phage-3422 (peptide)
peptide: LSTLCIPQWMCTGL
notes: as for B1
B4: the “phage binding ELISA signal in the presence of PSMA” value with PSMA Fab (006 PSMA Fab) [1] turned out to be 0.0813. Further, the “phage binding ELISA signal” value with PSMA Fab (006 PSMA Fab) [2] came to 1.78.

B5: Phage-3429 (peptide)
peptide: SLPICKPEWMCVGL
notes: as for B1
Turning to B5, in the experiment with PSMA Fab (006 PSMA Fab) [1], the “phage binding ELISA signal in the presence of PSMA” value amounted to 0.0892. The “phage binding ELISA signal” value with PSMA Fab (006 PSMA Fab) [2] was determined as 1.77.

B6: Phage-3421 (peptide)
peptide: TDPLCIPEWMCQGM
notes: as for B1
Turning to B6, in the experiment with PSMA Fab (006 PSMA Fab) [1], the “phage binding ELISA signal in the presence of PSMA” value amounted to 0.0726. In addition, in the experiment with PSMA Fab (006 PSMA Fab) [2], the “phage binding ELISA signal” value is 1.78.
With SVKVCKPAWMCAGF (cysteine pairing not given here; also: fused to pIII of bacteriophage) [Phage-3413], the “Phage binding ELISA signal, Anti-PSMA Fab” value in the experiment with PSMA Fab [3] was determined as 1.79. In addition, in the experiment with PSMA Fab [4], the “Phage binding ELISA signal, Anti-PSMA Fab with PSMA antigen” value came out at 0.102.
For the molecule IMPTCVPQWMCNGF [Phage-3418], the “Phage binding ELISA signal, Anti-PSMA Fab” value with PSMA Fab [3] is 1.78. Also, the “Phage binding ELISA signal, Anti-PSMA Fab with PSMA antigen” value with PSMA Fab [4] worked out at 0.093.

B7: Phage-3425 (peptide)
peptide: LEIMCRPEWMCSGF
notes: as for B1
B7: in the experiment with PSMA Fab (006 PSMA Fab) [1], the “phage binding ELISA signal in the presence of PSMA” value is 0.0888. For the same molecule, the “phage binding ELISA signal” value with PSMA Fab (006 PSMA Fab) [2] was 1.77.

B8: Phage-3456 (peptide)
peptide: HIMQCKPAWMCSGL
notes: as for B2
B8: in the experiment with PSMA Fab (006 PSMA Fab) [5], the “Phage binding ELISA signal … of PSMA antigen” value came to 0.0654. Besides, the “Phage binding ELISA signal, Anti-PSMA Fab” value with PSMA Fab (006 PSMA Fab) [6] came to 1.74.

B9: Phage-3458 (peptide)
peptide: VVAQCVPRWMCDGF
notes: as for B2
As to B9, in the experiment with PSMA Fab (006 PSMA Fab) [5], the “Phage binding ELISA signal … of PSMA antigen” value stood at 0.103. Further, the “Phage binding ELISA signal, Anti-PSMA Fab” value with PSMA Fab (006 PSMA Fab) [6] stood at 1.74.

B10: Phage-3428 (peptide)
peptide: TSLRCVPEWMCSGF
notes: as for B1
As for B10, the “phage binding ELISA signal in the presence of PSMA” value with PSMA Fab (006 PSMA Fab) [1] was determined as 0.0814. Also, the “phage binding ELISA signal” value with PSMA Fab (006 PSMA Fab) [2] stood at 1.77.

B11: Phage-3427 (peptide)
peptide: SSMLCIPTWMCGGF
notes: as for B1
Regarding B11, in the experiment with PSMA Fab (006 PSMA Fab) [1], the “phage binding ELISA signal in the presence of PSMA” value worked out at 0.0536. In the experiment with PSMA Fab (006 PSMA Fab) [2], the “phage binding ELISA signal” value came to 1.77.
On to DTWICKPEWMCMGF [Phage-3416], for which the “Phage binding ELISA signal, Anti-PSMA Fab” value with PSMA Fab [3] is 1.78. In addition, the “Phage binding ELISA signal, Anti-PSMA Fab with PSMA antigen” value in the experiment with PSMA Fab [4] came to 0.0802.

B12: Phage-3433 (peptide)
peptide: IEPHCVPAWMCTGF
notes: as for B1
In the case of B12, the “phage binding ELISA signal in the presence of PSMA” value with PSMA Fab (006 PSMA Fab) [1] was 0.0805. The “phage binding ELISA signal” value with PSMA Fab (006 PSMA Fab) [2] is 1.76.
In the case of DFVRCVPDWMCQGF [Phage-3414], the “Phage binding ELISA signal, Anti-PSMA Fab” value in the experiment with PSMA Fab [3] was 1.79. In the experiment with PSMA Fab [4], the “Phage binding ELISA signal, Anti-PSMA Fab with PSMA antigen” value was found to be 0.0627.
As to VERACRPVWMCQGF [Phage-3417], in the experiment with PSMA Fab [3], the “Phage binding ELISA signal, Anti-PSMA Fab” value stood at 1.78. For the same molecule, the “Phage binding ELISA signal, Anti-PSMA Fab with PSMA antigen” value in the experiment with PSMA Fab [4] is 0.0907.

B13: Phage-3453 (peptide)
peptide: FEFRCTPEWMCRGF
notes: as for B2
As to B13, the “Phage binding ELISA signal … of PSMA antigen” value with PSMA Fab (006 PSMA Fab) [5] was 0.0706. The “Phage binding ELISA signal, Anti-PSMA Fab” value with PSMA Fab (006 PSMA Fab) [6] was 1.74.

B14: Phage-3430 (peptide)
peptide: VEKMCKPVWMCNGF
notes: as for B1
Take B14: the “phage binding ELISA signal in the presence of PSMA” value in the experiment with PSMA Fab (006 PSMA Fab) [1] was determined as 0.115. Further, the “phage binding ELISA signal” value with PSMA Fab (006 PSMA Fab) [2] was 1.77.

B15: Phage-3452 (peptide)
peptide: MERFCIPSWMCEGL
notes: as for B2
In the case of B15, in the experiment with PSMA Fab (006 PSMA Fab) [5], the “Phage binding ELISA signal … of PSMA antigen” value turned out to be 0.0682. In addition, the “Phage binding ELISA signal, Anti-PSMA Fab” value with PSMA Fab (006 PSMA Fab) [6] is 1.74.
On to METWCVPTWMCTGF [Phage-3415], for which, in the experiment with PSMA Fab [3], the “Phage binding ELISA signal, Anti-PSMA Fab” value worked out at 1.79. Further, the “Phage binding ELISA signal, Anti-PSMA Fab with PSMA antigen” value in the experiment with PSMA Fab [4] was 0.0748.

B16: Phage-3455 (peptide)
peptide: IEALCVPDWMCRGF
notes: as for B2
Consider B16, for which, in the experiment with PSMA Fab (006 PSMA Fab) [5], the “Phage binding ELISA signal … of PSMA antigen” value stood at 0.0663. Moreover, the “Phage binding ELISA signal, Anti-PSMA Fab” value with PSMA Fab (006 PSMA Fab) [6] turned out to be 1.74.

B17: Phage-3450 (peptide)
peptide: PLKLCIPEWMCVEL
notes: as for B2
Consider B17, for which, in the experiment with PSMA Fab (006 PSMA Fab) [5], the “Phage binding ELISA signal … of PSMA antigen” value worked out at 0.0747. The “Phage binding ELISA signal, Anti-PSMA Fab” value in the experiment with PSMA Fab (006 PSMA Fab) [6] came to 1.75.

B18: Phage-3423 (peptide)
peptide: YFQMCAPRWMCEGF
modifications: cysteine pairing not given here; also: fused to pIII of bacteriophage
notes: as for B1
On to B18, for which the “phage binding ELISA signal in the presence of PSMA” value with PSMA Fab (006 PSMA Fab) [1] worked out at 0.0849. The “phage binding ELISA signal” value with PSMA Fab (006 PSMA Fab) [2] was 1.78.

B19: Phage-3432 (peptide)
peptide: SFLRCEPMWMCLGF
notes: as for B1
With B19, the “phage binding ELISA signal in the presence of PSMA” value in the experiment with PSMA Fab (006 PSMA Fab) [1] was 0.0816. The “phage binding ELISA signal” value in the experiment with PSMA Fab (006 PSMA Fab) [2] was found to be 1.77.

B20: Phage-3449 (peptide)
peptide: EDVRCVPAWMCNGF
modifications: cysteine pairing not given here; also: fused to pIII of bacteriophage
notes: as for B2
Turning to B20, the “Phage binding ELISA signal … of PSMA antigen” value in the experiment with PSMA Fab (006 PSMA Fab) [5] came to 0.0724. In addition, in the experiment with PSMA Fab (006 PSMA Fab) [6], the “Phage binding ELISA signal, Anti-PSMA Fab” value is 1.75.

B21: Phage-3420 (peptide)
peptide: NDVKCIPEWMCVGF
notes: as for B1
With B21, in the experiment with PSMA Fab (006 PSMA Fab) [1], the “phage binding ELISA signal in the presence of PSMA” value amounted to 0.0849. The “phage binding ELISA signal” value in the experiment with PSMA Fab (006 PSMA Fab) [2] came out at 1.78.

B22: Phage-3454 (peptide)
peptide: VTMRCTPDWMCVGF
notes: as for B2
Consider B22, for which the “Phage binding ELISA signal … of PSMA antigen” value with PSMA Fab (006 PSMA Fab) [5] turned out to be 0.0737. Further, in the experiment with PSMA Fab (006 PSMA Fab) [6], the “Phage binding ELISA signal, Anti-PSMA Fab” value was 1.74.

B23: Phage-3451 (peptide)
peptide: TINICKPQWMCIGF
notes: as for B2
With B23, the “Phage binding ELISA signal … of PSMA antigen” value with PSMA Fab (006 PSMA Fab) [5] stood at 0.0893. Also, the “Phage binding ELISA signal, Anti-PSMA Fab” value in the experiment with PSMA Fab (006 PSMA Fab) [6] was determined as 1.74.
As to ELVRCIPVWMCQGF [Phage-3412], the “Phage binding ELISA signal, Anti-PSMA Fab” value with PSMA Fab [3] came to 1.79. The “Phage binding ELISA signal, Anti-PSMA Fab with PSMA antigen” value with PSMA Fab [4] amounted to 0.368.

B24: Phage-3424 (peptide)
peptide: IDQICKPAWMCSGF
notes: as for B1
As to B24, the “phage binding ELISA signal in the presence of PSMA” value with PSMA Fab (006 PSMA Fab) [1] was found to be 0.0628. In addition, the “phage binding ELISA signal” value with PSMA Fab (006 PSMA Fab) [2] worked out at 1.78.
